Experimental data as given in patent US20230250154A1 (CYTONICS, published 2023).

T1: Cathepsin G (UniProt P08311 21-244)
T1 sequence (looked up): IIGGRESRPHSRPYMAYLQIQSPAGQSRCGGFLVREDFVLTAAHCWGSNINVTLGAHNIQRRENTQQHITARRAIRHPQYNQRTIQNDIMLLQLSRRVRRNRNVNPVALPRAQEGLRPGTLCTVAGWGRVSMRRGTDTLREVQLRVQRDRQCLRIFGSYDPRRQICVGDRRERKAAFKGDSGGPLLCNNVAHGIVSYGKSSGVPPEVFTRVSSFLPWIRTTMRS

T2: MMP1 (human, UniProt P03956 100-469, limits assumed)
T2 sequence (looked up): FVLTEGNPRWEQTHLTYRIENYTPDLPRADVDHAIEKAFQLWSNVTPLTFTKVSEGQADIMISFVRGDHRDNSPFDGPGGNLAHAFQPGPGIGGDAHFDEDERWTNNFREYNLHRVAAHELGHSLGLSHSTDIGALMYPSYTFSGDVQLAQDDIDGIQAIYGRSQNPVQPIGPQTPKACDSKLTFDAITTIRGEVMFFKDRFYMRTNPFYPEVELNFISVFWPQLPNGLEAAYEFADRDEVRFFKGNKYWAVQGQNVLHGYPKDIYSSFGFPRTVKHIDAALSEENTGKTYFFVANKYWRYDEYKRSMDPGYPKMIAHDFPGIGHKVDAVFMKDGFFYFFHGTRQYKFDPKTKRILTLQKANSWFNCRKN

B1: Variant A2M, bait region SEQ ID NO 135 (other)
chain: SVSGKPQYMVLVPSLLHTETTEKGCVLLSYLNETVTVSASLESVRGNRSLFTDLEAENDVLHCVAFAVPKSSSNEEVMFLTVQVKGPTQEFKKRTTVMVKNEDSLVFVQTDKSIYKPGQTVKFRVVSMDENFHPLNELIPLVYIQDPKGNRIAQWQSFQLEGGLKQFSFPLSSEPFQGSYKVVVQKKSGGRTEHPFTVEEFVLPKFEVQVTVPKIITILEEEMNVSVCGLYTYGKPVPGHVTVSICRKYSDASDCHGEDSQAFCEKFSGQLNSHGCFYQQVKTKVFQLKRKEYEMKLHTEAQIQEEGTVVELTGRQSSEITRTITKLSFVKVDSHFRQGIPFFGQVRLVDGKGVPIPNKVIFIRGNEANYYSNATTDEHGLVQFSINTTNVMGTSLTVRVNYKDRSPCYGYQWVSEEHEEAHHTAYLVFSPSKSFVHLEPMSHELPCGHTQTVQAHYILNGGTLLGLKKLSFYYLIMAKGGIVRTGTHGLLVKQEDMKGHFSISIPVKSDIAPVARLLIYAVLPTGDVIGDSAKYDVENCLANKVDLSFSPSQSLPASHAHLRVTAAPQSVCALRAVDQSVLLMKPDAELSASSVYNLLPEKDLTGFPGPLNDQDDEDCINRHNVYINGITYTPVSSTNEKDMYSFLEDMGLKAFTNSKIRKPKMCPQLEQYEMHGPIPENFFGVSELEGRGSSEDLVVQIKEEEGLGSVEEPHTKLRKYFPETWIWDLVVVNSAGVAEVGVTVPDTITEWKAGAFCLSEDAGLGISSTASLRAFQPFFVELTMPYSVIRGEAFTLKATVLNYLPKCIRVSVQLEASPAFLAVPVEKEQAPHCICANGRQTVSWAVTPKSLGNVNFTVSAEALESQELCGTEVPSVPEHGRKDTVIKPLLVEPEGLEKETTFNSLLCPSGGEVSEELSLKLPPNVVEESARASVSVLGDILGSAMQNTQNLLQMPYGCGEQNMVLFAPNIYVLDYLNETQQLTPEIKSKAIGYLNTGYQRQLNYKHYDGSYSTFGERYGRNQGNTWLTAFVLKTFAQARAYIFIDEAHITQALIWLSQRQKDNGCFRSSGSLLNNAIKGGVEDEVTLSAYITIALLEIPLTVTHPVVRNALFCLESAWKTAQEGDHGSHVYTKALLAYAFALAGNQDKRKEVLKSLNEEAVKKDNSVHWERPQKPKAPVGHFYEPQAPSAEVEMTSYVLLAYLTAQPAPTSEDLTSATNIVKWITKQQNAQGGFSSTQDTVVALHALSKYGAATFTRTGKAAQVTIQSSGTFSSKFQVDNNNRLLLQQVSLPELPGEYSMKVTGEGCVYLQTSLKYNILPEKEEFPFALGVQTLPQTCDEPKAHTSFQISLSVSYTGSRSASNMAIVDVKMVSGFIPLKPTVKMLERSNHVSRTEVSSNHVLIYLDKVSNQTLSLFFTVLQDVPVRDLKPAIVKVYDYYETDEFAIAEYNAPCSKDLGNADYKDDDDKGASHHHHHH
B2: Variant A2M, bait region SEQ ID NO 133 (other)
chain: SVSGKPQYMVLVPSLLHTETTEKGCVLLSYLNETVTVSASLESVRGNRSLFTDLEAENDVLHCVAFAVPKSSSNEEVMFLTVQVKGPTQEFKKRTTVMVKNEDSLVFVQTDKSIYKPGQTVKFRVVSMDENFHPLNELIPLVYIQDPKGNRIAQWQSFQLEGGLKQFSFPLSSEPFQGSYKVVVQKKSGGRTEHPFTVEEFVLPKFEVQVTVPKIITILEEEMNVSVCGLYTYGKPVPGHVTVSICRKYSDASDCHGEDSQAFCEKFSGQLNSHGCFYQQVKTKVFQLKRKEYEMKLHTEAQIQEEGTVVELTGRQSSEITRTITKLSFVKVDSHFRQGIPFFGQVRLVDGKGVPIPNKVIFIRGNEANYYSNATTDEHGLVQFSINTTNVMGTSLTVRVNYKDRSPCYGYQWVSEEHEEAHHTAYLVFSPSKSFVHLEPMSHELPCGHTQTVQAHYILNGGTLLGLKKLSFYYLIMAKGGIVRTGTHGLLVKQEDMKGHFSISIPVKSDIAPVARLLIYAVLPTGDVIGDSAKYDVENCLANKVDLSFSPSQSLPASHAHLRVTAAPQSVCALRAVDQSVLLMKPDAELSASSVYNLLPEKDLTGFPGPLNDQDDEDCINRHNVYINGITYTPVSSTNEKDMYSFLEDMGLKAFTNSKIRKPKMCPQLEQYEMHGPIPENFFGVEGEGEGESELEGRGSSEDLVVQIVEEPHTKLRKYFPETWIWDLVVVNSAGVAEVGVTVPDTITEWKAGAFCLSEDAGLGISSTASLRAFQPFFVELTMPYSVIRGEAFTLKATVLNYLPKCIRVSVQLEASPAFLAVPVEKEQAPHCICANGRQTVSWAVTPKSLGNVNFTVSAEALESQELCGTEVPSVPEHGRKDTVIKPLLVEPEGLEKETTFNSLLCPSGGEVSEELSLKLPPNVVEESARASVSVLGDILGSAMQNTQNLLQMPYGCGEQNMVLFAPNIYVLDYLNETQQLTPEIKSKAIGYLNTGYQRQLNYKHYDGSYSTFGERYGRNQGNTWLTAFVLKTFAQARAYIFIDEAHITQALIWLSQRQKDNGCFRSSGSLLNNAIKGGVEDEVTLSAYITIALLEIPLTVTHPVVRNALFCLESAWKTAQEGDHGSHVYTKALLAYAFALAGNQDKRKEVLKSLNEEAVKKDNSVHWERPQKPKAPVGHFYEPQAPSAEVEMTSYVLLAYLTAQPAPTSEDLTSATNIVKWITKQQNAQGGFSSTQDTVVALHALSKYGAATFTRTGKAAQVTIQSSGTFSSKFQVDNNNRLLLQQVSLPELPGEYSMKVTGEGCVYLQTSLKYNILPEKEEFPFALGVQTLPQTCDEPKAHTSFQISLSVSYTGSRSASNMAIVDVKMVSGFIPLKPTVKMLERSNHVSRTEVSSNHVLIYLDKVSNQTLSLFFTVLQDVPVRDLKPAIVKVYDYYETDEFAIAEYNAPCSKDLGNADYKDDDDKGASHHHHHH
B3: Variant A2M, bait region SEQ ID NO 138 (other)
chain: SVSGKPQYMVLVPSLLHTETTEKGCVLLSYLNETVTVSASLESVRGNRSLFTDLEAENDVLHCVAFAVPKSSSNEEVMFLTVQVKGPTQEFKKRTTVMVKNEDSLVFVQTDKSIYKPGQTVKFRVVSMDENFHPLNELIPLVYIQDPKGNRIAQWQSFQLEGGLKQFSFPLSSEPFQGSYKVVVQKKSGGRTEHPFTVEEFVLPKFEVQVTVPKIITILEEEMNVSVCGLYTYGKPVPGHVTVSICRKYSDASDCHGEDSQAFCEKFSGQLNSHGCFYQQVKTKVFQLKRKEYEMKLHTEAQIQEEGTVVELTGRQSSEITRTITKLSFVKVDSHFRQGIPFFGQVRLVDGKGVPIPNKVIFIRGNEANYYSNATTDEHGLVQFSINTTNVMGTSLTVRVNYKDRSPCYGYQWVSEEHEEAHHTAYLVFSPSKSFVHLEPMSHELPCGHTQTVQAHYILNGGTLLGLKKLSFYYLIMAKGGIVRTGTHGLLVKQEDMKGHFSISIPVKSDIAPVARLLIYAVLPTGDVIGDSAKYDVENCLANKVDLSFSPSQSLPASHAHLRVTAAPQSVCALRAVDQSVLLMKPDAELSASSVYNLLPEKDLTGFPGPLNDQDDEDCINRHNVYINGITYTPVSSTNEKDMYSFLEDMGLKAFTNSKIRKPKMCPQLEQYEMHGPSEDLVVQIEGEGEGEGIPENFFGVKEEEGLGSVEEPHTKLRKYFPETWIWDLVVVNSAGVAEVGVTVPDTITEWKAGAFCLSEDAGLGISSTASLRAFQPFFVELTMPYSVIRGEAFTLKATVLNYLPKCIRVSVQLEASPAFLAVPVEKEQAPHCICANGRQTVSWAVTPKSLGNVNFTVSAEALESQELCGTEVPSVPEHGRKDTVIKPLLVEPEGLEKETTFNSLLCPSGGEVSEELSLKLPPNVVEESARASVSVLGDILGSAMQNTQNLLQMPYGCGEQNMVLFAPNIYVLDYLNETQQLTPEIKSKAIGYLNTGYQRQLNYKHYDGSYSTFGERYGRNQGNTWLTAFVLKTFAQARAYIFIDEAHITQALIWLSQRQKDNGCFRSSGSLLNNAIKGGVEDEVTLSAYITIALLEIPLTVTHPVVRNALFCLESAWKTAQEGDHGSHVYTKALLAYAFALAGNQDKRKEVLKSLNEEAVKKDNSVHWERPQKPKAPVGHFYEPQAPSAEVEMTSYVLLAYLTAQPAPTSEDLTSATNIVKWITKQQNAQGGFSSTQDTVVALHALSKYGAATFTRTGKAAQVTIQSSGTFSSKFQVDNNNRLLLQQVSLPELPGEYSMKVTGEGCVYLQTSLKYNILPEKEEFPFALGVQTLPQTCDEPKAHTSFQISLSVSYTGSRSASNMAIVDVKMVSGFIPLKPTVKMLERSNHVSRTEVSSNHVLIYLDKVSNQTLSLFFTVLQDVPVRDLKPAIVKVYDYYETDEFAIAEYNAPCSKDLGNADYKDDDDKGASHHHHHH

target: Elastase; test: cell-based or functional assay

Row | Protease Inhibition (% of WT) | Binder
1 | 300 % of WT | B1
2 | 350 % of WT | B2
3 | 250 % of WT | B3

target: T1, Cathepsin G; test: cell-based or functional assay

Row | Protease Inhibition (% of WT) | Binder
4 | 100 % of WT | B1
5 | 100 % of WT | B2
6 | 100 % of WT | B3

target: T2, MMP1; test: cell-based or functional assay

Row | Protease Inhibition (% of WT) | Binder
7 | 300 % of WT | B1
8 | 250 % of WT | B2
9 | 200 % of WT | B3
